Experiments:
MCF-7 RANK OE xenografts = assay: MCF-7^OE orthotopic xenograft growth with exogenous sRANKL; type: in vivo, NSG mice; conditions: human sRANKL 0.5 mg/every 48 h s.c. vs vehicle; eight weeks
Method: Nod scid gamma (NSG) mice were inoculated in the 2nd thoracic mammary fat pad with MCF-7 RANK OE GFP+Luc+ (RANK OE) cells (n=3-4/group). Mice were treated with human sRANKL 0.5 mg/every 48 h s.c. or vehicle (PBS). Tumors were imaged by bioluminescence every week post tumor inoculation untill the end of the experience (eight weeks). FIG. 10A is a graph of the total flux (p/s) measured at the end of experiment. FIG. 10B is a graph of tumor weight at the time of sacrifice for tumors derived from MCF-7 OE cells taken from mice treated with (+) or without (−) sRANKL. FIG. 10C is a graph of the Ki67-positive stained cells from tumors derived from MCF-7 OE cells taken from mice treated with (+) or without (−) sRANKL. Data is presented as mean±SEM. p-value was calculated using 2-way ANOVA or unpaired t-test, *p<0.05, **p<0.01, ***p<0.001.
Tumor growth was monitored weekly by luminescence analysis.
To determine whether the decreased proliferation rate was due to RANKL availability, NSG mice were inoculated with one of Parental, RANK OE, or Mix cells, as described above, and treated with human soluble RANKL or vehicle control subcutaneously.

[1] = test system: RANKL-driven RANK pathway activation (ERK, AKT phosphorylation); assay: RANKL stimulation and RANKL neutralization, western blot; type: cell-based, human; conditions: 1 μg/ml RANKL; serum starved cells
Method: It was also confirmed that OPG-Fc is able to neutralize RANKL. Protein expression was assessed by western blot. Cells were seeded in 6-well plates, serum starved for 24 h, and exposed to 1 μg/ml RANKL for the indicated time points (FIG. 26A). For RANKL neutralization (FIG. 26B), RANKL was previously incubated for 60 min at 37° C. in serum-depleted medium±100 ng/ml OPG-Fc or 2.5 μg/ml MAB626, and proteins analyzed after 60 min. β-Actin was used as loading control and band intensity was quantified using FiJi. […] In the presence of OPG-Fc or the anti-RANKL monoclonal antibody MAB626, RANKL-driven RANK pathway activation was decreased (FIG. 26B).
(§1) For this purpose, 4×10^5 cells were seeded in 6-well plates for 24 h, and serum-starved in low-serum medium (0,1% FBS, 1% Pen/Step) for another 24 h. […] Total protein was quantified using Pierce BCA Protein Assay Kit (ThermoSicentific), according to manufacturer's instructions. […]
Membranes were blocked for 1 h at room temperature (RT) in 5% Non-Fat Dry Milk (NFDM) in PBS-0.1% Tween (PBST) for β-actin; or in 5% bovine serum albumin (BSA) (Santa Cruz) for other antibodies. […] Proteins were detected using a Novex® ECL HRP chemiluminescent substrate reagent kit (Invitrogen) according to the manufacturer's instructions, and x-ray films (Fujifilm) developed in a Curix 60 processor (AGFA), or the Amersham™ Imager 680 (GE Healthcare Life Sciences).

[2] = test system: phosphorylation of IkBα, NFkB, ERK and AKT in MCF-7 OE and T47D OE cells; assay: RANK signalling after sRANKL stimulation of RANK OE cells, western blot; type: cell-based, human; conditions: 1 μg/mL sRANKL
Method: FIG. 1C provides data that show the activation of RANK signaling pathway. After 24 h in low-serum medium, MCF-7 and T47D cells, or their RANK-overexpressing counterparts MCF-7^OE and T47D^OE, were stimulated with 1 μg/mL soluble RANK ligand (sRANKL) for 0, 5, 10, 20, 40, or 60 min (top panel) or 0, 5, 10, or 25 min (bottom panel). Cell lysates were western blotted using the antibody specific for the indicated protein (IκBα; NK-κB p65; ERK1/2; AKT), or for a phosphorylated version thereof (p-IκBα (Ser32); p-NK-κB p65 (Ser536); p-ERK1/2; p-AKT). β-Actin was used as loading control.
as §1
Membranes were blocked for 1 h at room temperature (RT) in 5% Non-Fat Dry Milk (NFDM) in PBS-0.1% Tween (PBST) for β-actin; or in 5% bovine serum albumin (BSA) (Santa Cruz) for other antibodies. […] Proteins were detected using a Novex® ECL HRP chemiluminescent substrate reagent kit (Invitrogen) according to the manufacturer's instructions, and x-ray films (Fujifilm) developed in a Curix 60 processor (AGFA), or the Amersham™ Imager 680 (GE Healthcare Life Sciences). […]

B1: sRANKL: soluble RANK ligand used as stimulus (protein)
chain: EKAMVDGSWLDLAKRSKLEAQPFAHLTINATDIPSGSHKVSLSSWYHDRGWAKISNMTFSNGKLIVNQDGFYYLYANICFRHHETSGDLATEYLQLMVYVTKTSIKIPSSHTLMKGGSTKYWSGNSEFHFYSINVGGFFKLRSGEEISIEVSNPSLLDPDQDATYFGAFKVRDID
- tumor growth (MCF-7 RANK OE xenografts): did not affect
- phosphorylation of RANK-downstream factors, like ERK and AKT [1]: drives the phosphorylation
- RANK pathway activity after stimulation [2]: increased RANK pathway activity

Reference: US20220195059A1, “Rank Pathway Inhibitors in Combination with CDK Inhibitors” (INSTITUTO DE MEDICINA MOLECULAR JOÃO LOBO ANTUNES, priority 2019, published 2022)
